Data on 13 molecules can be found in patent publication US5773001 (American Cyanamid Company, dated 1998).

Where two headings read alike, the source gives them in different places. A value given as a limit tells only on which side of the number the result lay.

Assay [1] has as its target T1, glycoprotein antigen present on colon cancer cells, recognized by A33 (Homo sapiens (Human)) (UniProt Q99795).
T1 sequence: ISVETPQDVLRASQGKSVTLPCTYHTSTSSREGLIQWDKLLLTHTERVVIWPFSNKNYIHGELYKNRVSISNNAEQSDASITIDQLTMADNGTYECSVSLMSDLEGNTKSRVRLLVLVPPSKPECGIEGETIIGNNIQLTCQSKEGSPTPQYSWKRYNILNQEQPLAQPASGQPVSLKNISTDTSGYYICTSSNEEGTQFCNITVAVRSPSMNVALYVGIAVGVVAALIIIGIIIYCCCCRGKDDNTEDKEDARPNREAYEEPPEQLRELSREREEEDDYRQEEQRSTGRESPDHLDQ
Nature of the assay: competition on Colo205 cells, FACScan; competitor FITC-labelled murine A33.

Assay [2] addresses CD33 antigen (human) (UniProt P20138).
For assay [3] the target is unchanged. The experiment in a line: competition with 125I-labelled native antibody on HEL 92.1.7 cells; IC50 (reference) / IC50 (sample).
Assay [4] shares this target. The description is as above. This is another data set of the same source.
For assay [5] the target is unchanged. This is another data set of the same source.
A further assay addresses soluble CD33 antigen (Homo sapiens (Human), UniProt P20138). The experiment in a line: inhibition of binding to HL60 cells by pre-incubation with soluble antigen.
Assay [6] deals with CD33 antigen (human) (UniProt P20138). Nature of the assay: competition binding on HL60 cells against murine antibody.
Assay [7] has the same target. The source holds these as a separate data set.
The target is the same in assay [8]. The source holds these as a separate data set.
The target is the same in assay [9]. This is another data set of the same source.
The target is the same in assay [10]. The source holds these as a separate data set.
Assay [11] has as its target T1, glycoprotein antigen present on colon cancer cells, recognized by A33 (Homo sapiens (Human)). The experiment in a line: competition with 125I-labelled native antibody on COLO 205 cells; IC50 (reference) / IC50 (sample).
Assay [12] shares this target.
Assay [13] concerns the target T2, polymorphic epithelial mucin (PEM) (human, UniProt P15941). Nature of the assay: competition EIA on PEM-coated plates; competitor biotinylated CTM01 MAb.
The target of assay [14] is polyepithelial mucin (PEM) antigen on cells (human) (UniProt P15941).
Sequence of polyepithelial mucin (PEM) antigen on cells (human) (P15941 24-1255): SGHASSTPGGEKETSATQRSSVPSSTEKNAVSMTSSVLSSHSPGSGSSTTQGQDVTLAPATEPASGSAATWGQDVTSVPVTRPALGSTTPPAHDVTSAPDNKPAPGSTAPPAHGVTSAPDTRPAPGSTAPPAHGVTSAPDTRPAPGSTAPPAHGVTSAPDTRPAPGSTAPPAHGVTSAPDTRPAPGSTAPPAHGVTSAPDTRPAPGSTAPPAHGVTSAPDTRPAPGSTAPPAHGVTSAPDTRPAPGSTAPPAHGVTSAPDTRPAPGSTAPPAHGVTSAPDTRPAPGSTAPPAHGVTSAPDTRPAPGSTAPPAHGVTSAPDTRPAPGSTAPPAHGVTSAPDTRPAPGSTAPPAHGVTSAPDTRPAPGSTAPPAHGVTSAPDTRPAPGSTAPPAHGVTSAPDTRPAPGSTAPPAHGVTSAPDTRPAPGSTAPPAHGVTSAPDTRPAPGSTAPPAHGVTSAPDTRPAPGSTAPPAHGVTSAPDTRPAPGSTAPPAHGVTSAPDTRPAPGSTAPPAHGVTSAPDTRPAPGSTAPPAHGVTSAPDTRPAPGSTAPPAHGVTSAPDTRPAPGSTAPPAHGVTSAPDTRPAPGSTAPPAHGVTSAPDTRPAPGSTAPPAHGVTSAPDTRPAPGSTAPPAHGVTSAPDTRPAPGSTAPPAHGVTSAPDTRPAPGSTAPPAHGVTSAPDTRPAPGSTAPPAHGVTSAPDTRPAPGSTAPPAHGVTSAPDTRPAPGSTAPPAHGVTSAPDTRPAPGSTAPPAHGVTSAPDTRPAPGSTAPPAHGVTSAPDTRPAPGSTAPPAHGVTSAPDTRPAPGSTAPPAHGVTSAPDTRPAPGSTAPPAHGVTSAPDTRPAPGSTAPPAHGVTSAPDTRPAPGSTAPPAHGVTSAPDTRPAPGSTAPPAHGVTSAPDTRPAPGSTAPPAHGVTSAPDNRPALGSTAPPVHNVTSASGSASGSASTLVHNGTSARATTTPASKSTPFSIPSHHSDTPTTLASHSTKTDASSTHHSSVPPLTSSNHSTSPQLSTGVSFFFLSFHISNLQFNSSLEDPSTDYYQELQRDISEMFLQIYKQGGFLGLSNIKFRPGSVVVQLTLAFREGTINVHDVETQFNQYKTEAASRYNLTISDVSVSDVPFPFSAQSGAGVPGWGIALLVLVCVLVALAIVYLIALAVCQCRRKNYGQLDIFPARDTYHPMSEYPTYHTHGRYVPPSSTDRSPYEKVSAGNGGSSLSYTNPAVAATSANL
Assay [15] shares this target. The experiment in a line: competition with 125I-labelled native antibody on A2780DDP cells; IC50 (reference) / IC50 (sample).
The target of assay [16] is T2, polymorphic epithelial mucin (PEM). Nature of the assay: reactivity of affinity column fractions with the CTM01 MAb.
In assay [17] the target is polyepithelial mucin (PEM) antigen on cells (human) (UniProt P15941). The source holds these as a separate data set.

In turn, humanized A33 (antibody) gave a relative potency against the murine antibody in [1] of 75%.

As to “Conjugate of 4-formylbenzoic acid (2) condensed with Calicheamicin N-acetyl gamma dimethyl hydrazide and m-P67.6 (antibody)”, the In vitro IC50 (3H-thymidine incorporation) in the assay with CD33 antigen (human) [2] is 4 ng/mL. Moreover, the Rel. Affinity with CD33 antigen (human) [3] was 1.05.

B1: Conjugate of 4-2-(4-acetylphenyl)amino!methyl!-6-methoxyphenoxy!butanoic acid (28) condensed with Calicheamicin N-acetyl gamma dimethyl hydrazide and h-P67.6 (antibody, V domains shown)
VH: EVQLVQSGAEVKKPGSSVKVSCKASGYTITDSNIHWVRQAPGQSLEWIGYIYPYNGGTDYNQKFKNRATLTVDNPTNTAYMELSSLRSEDTDFYYCVNGNPWLAYWGQGTLVTVSS
VL: DIQLTQSPSTLSASVGDRVTITCRASESLDNYGIRFLTWFQQKPGKAPKLLMYAASNQGSGVPSRFSGSGSGTEFTLTISSLQPDDFATYYCQQTKEVPWSFGQGTKVEVKR
modifications: drug-linker amide on lysine side chains, sites not stated; drug-linker amide on lysine side chains, sites not stated
B1 showed a Rel. Affinity in the assay with CD33 antigen (human) [4] of 0.85. In the assay with CD33 antigen (human) [5], this molecule returned an In vitro IC50 (3H-thymidine incorporation) of under 0.005 ng/mL.

B2: h-P67.6 (antibody, V domains shown)
VH: B1 VH
VL: B1 VL
Take B2: the binding result in the assay with soluble CD33 antigen is “binds”. The molecule also gave a loss in immunoaffinity against the murine antibody with CD33 antigen (human) [6] of 50%.

B3: Conjugate of 4-(2-Acetylphenoxy)butanoic acid (31) condensed with Calicheamicin N-acetyl gamma dimethyl hydrazide and h-P67.6 (antibody, V domains shown)
VH: B1 VH
VL: B1 VL
modifications: drug-linker amide on lysine side chains, sites not stated; drug-linker amide on lysine side chains, sites not stated
As to B3, the In vitro IC50 (3H-thymidine incorporation) with CD33 antigen (human) [7] was under 0.005 ng/mL. Besides, the Rel. Affinity in the assay with CD33 antigen (human) [4] turned out to be 0.95.

B4: Conjugate of 4-(4-acetyl-3-fluorophenoxy)butanoic acid (30) condensed with Calicheamicin N-acetyl gamma dimethyl hydrazide and h-P67.6 (antibody, V domains shown)
VH: B1 VH
VL: B1 VL
modifications: drug-linker amide on lysine side chains, sites not stated; drug-linker amide on lysine side chains, sites not stated
In the assay with CD33 antigen (human) [4], B4 registered a Rel. Affinity of 1.01. The In vitro IC50 (3H-thymidine incorporation) in the assay with CD33 antigen (human) [8] amounted to 0.005 ng/mL.

B5: Conjugate of 2-acetyl-10H-phenothiazine-10-hexanoic acid (32) condensed with Calicheamicin N-acetyl gamma dimethyl hydrazide and h-P67.6 (antibody, V domains shown)
VH: B1 VH
VL: B1 VL
modifications: drug-linker amide on lysine side chains, sites not stated; drug-linker amide on lysine side chains, sites not stated
The molecule B5 came in with a Rel. Affinity with CD33 antigen (human) [4] of 1.25. The same molecule gave an In vitro IC50 (3H-thymidine incorporation) with CD33 antigen (human) [9] of 0.021 ng/mL.

B6: Conjugate of 4-acetylphenylacetic acid (33) condensed with Calicheamicin N-acetyl gamma dimethyl hydrazide and h-P67.6 (antibody, V domains shown)
VH: B1 VH
VL: B1 VL
modifications: drug-linker amide on lysine side chains, sites not stated; drug-linker amide on lysine side chains, sites not stated
In the assay with CD33 antigen (human) [10], B6 registered an In vitro IC50 (3H-thymidine incorporation) of under 0.005 ng/mL. In the assay with CD33 antigen (human) [4], this molecule registered a Rel. Affinity of 0.91.

B7: Conjugate of 4-(4-acetylphenoxy)butanoic acid (7) condensed with calicheamicin N-acetyl gamma dimethyl hydrazide and m-A33 (antibody, V domains shown)
VH: EVKLVESGGGLVKPGGSLKLSCAASGFAFSTYDMSWVRQTPEKRLEWVATISSGGSYTYYLDSVKGRFTISRDSPRNTLYLQMSSLRSEDTALYYCAPTTVVPFAYWGQGTLVTVSA
VL: DIVMTQSQKFMSTSVGDRVSITCKASQNVRTVVAWYQQKPGQSPKTLIYLASNRHTGVPDRFTGSGSGTDFTLTISNVQSEDLADYFCLQHWSYPLTFGSGTKLEVKR
modifications: drug-linker amide on lysine side chains, sites not stated; drug-linker amide on lysine side chains, sites not stated
Molecule B7 returned a Rel. Affinity in assay [11] of 0.68. The molecule further yielded an In vitro IC50 (3H-thymidine incorporation) in [12] of 3.32 ng/mL.

B8: gL1gH2 (antibody, V domains shown)
VH: QIQLVQSGAEVKKPGSSVKVSCKASGYTFTDYYINWMRQAPGQGLEWIGWIDPGSGNTKYNEKFKGRATLTVDTSTNTAYMELSSLRSEDTAFYFCAREKTTYYYAMDYWGQGTLVTVSS
VL: DIQMTQSPSTLSASVGDRVTITCRSSKSLLHSNGDTFLYWFQQKPGKAPKLLMYRMSNLASGVPSRFSGSGSGTEFTLTISSLQPDDFATYYCMQHLEYPFTFGQGTKVEVKR
For B8, the binding result in [13] is recorded as “binds”.

B9: Conjugate of 4-formylphenoxyacetic acid (1) condensed with Calicheamicin N-acetyl gamma dimethyl hydrazide and m-CT-M-01 (antibody, V domains shown)
VH: QIQLQQSGPELVKPGASVKISCKASGYTFTDYYINWMKQKPGQGLEWIGWIDPGSGNTKYNEKFKGKATLTVDTSSSTAYMQLSSLTSEDTAVYFCAREKTTYYYAMDYWGQGTSVTVSA
VL: DIVMTQAAPSVPVTPGESLSISCRSSKSLLHSNGDTFLYWFLQRPGQSPQLLIYRMSNLASGVPDRFSGSGSGTAFTLRVSRVEAEDVGVYYCMQHLEYPFTFGAGTKLELKR
modifications: drug-linker amide on lysine side chains, sites not stated; drug-linker amide on lysine side chains, sites not stated
B9: the In vitro IC50 (3H-thymidine incorporation) in assay [14] was 1.5 ng/mL. Besides, the Rel. Affinity in assay [15] is 0.84.

B10: CTM01 MAb (antibody, V domains shown)
VH: B9 VH
VL: B9 VL
For B10, the binding result in assay [16] is “binds”.

B11: Conjugate of 4-formylbenzoic acid (2) condensed with Calicheamicin N-acetyl gamma dimethyl hydrazide and m-CT-M-01 (antibody, V domains shown)
VH: B9 VH
VL: B9 VL
modifications: drug-linker amide on lysine side chains, sites not stated; drug-linker amide on lysine side chains, sites not stated
In turn, B11 came in with an In vitro IC50 (3H-thymidine incorporation) in [17] of 5.6 ng/mL. Besides, the Rel. Affinity in assay [15] amounted to 0.9.
